experiment: yeast display, Sf9 membrane polyspecificity reagent, FACS + sequencing; frameworks hold sequencing errors
Procedure, shortened: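 A nanobody's polyreactivity label depends on the gate it was sorted from. Yeast display cells were stained with 10% biotinylated, detergent-solubilized Sf9 membrane reagent for 1 hour at 4 °C, enriched on streptavidin microbeads and sorted by FACS. The low and high (top ~1%) gates were set on anti-HA fluorescence for expression and streptavidin fluorescence for reagent binding.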

Row | Sequence | polyreactivity (PSR sort gate)
1 | QVQLVESGGGLVQAGGSLRLSCAASGSTYRPYAMGWYRQAPGKERELVAAITGSGGSTYYADSVKGRFTISRDNAKITDYLQMNSLKPEDTAVYYCNAVSTWRYYYWGQGTQVTVSS | high polyreactivity
2 | QVQLVESGGGLVQAGGSLRLSCAASGSTYSTNAMGWYRQAPGKERELVAAISRSGGSTYYADTVKRRFTISRDNAKITVYLQMNRLKPEDTAVYYCARYSFRGTNVRYDYWGQGTQVTVSS | high polyreactivity
3 | QVQLVESGGGLVQAGGSLRLSCAASGSTYSYYVMGWYRQAPGKERELVAAISRSGGRTYYADSVKGRFTISRDNAKNTVYLQMNSLKPEDTAVNYCAAREFDHPPYDYWGQGTQVTVSS | high polyreactivity
4 | QVQLVESGGGLVQAGGSLRLSCAASGSTYTNAMGWYRPAPGKERELVAAITWSGGTTYYADSVKGRLTISRDNAKNTVYLQMNSLKPEDTAVYYCAAEYRWYSRYFNYWGQGTQVTVSS | high polyreactivity
5 | QVQLVESGGGLVQAGGSLRLSCAASGSTYWINAMGWYRQAPGKEREFVAAIRWNGGSTNYADSVKGRFTISRDNAKNTVYLQMNSLKPEDTAVYYCAADGYIGWRHIYEYWGQGTQVTVSS | low polyreactivity
6 | QVQLVESGGGLVQAGGSLRLSCAASGSTYWNAMGWYRQAPGKERELVAAITFRGGSTYADSLKGRFTISRDNAKNTVSLQMISLKPEDTAVYYCAKASYHRWYNVRNRAGYDYWGQGTQVTVSS | high polyreactivity
7 | QVQLVESGGGLVQAGGSLRLSCAASGSTYYIYAMGWYRQAPGKEREMVAAISDNGGTTYYADSVKGRFTISRDNAKNTVYLQMNSLKPEDTAVYYCNAEGWWYWYYGSYDYWGQGTQVTVSS | high polyreactivity
8 | QVQLVESGGGLVQAGGSLRLSCAASGSTYYLYAMGWYRQAPGKERELVAVITWSDGSTYYADSVKGRFTISRDNAKNTVYFQMNSLKPEDTAVSYCAKDLDSGGRGYYWGQGTQVTVSS | low polyreactivity
9 | QVQLVESGGGLVQAGGSLRLSCAASGSTYYNAMGWYRQAPGKERELVAAIRFRSGSTYYADSVKGRFTISRDNAKNTVYLQMNSLKPEDTAVYYCNKVPYRGYRRYGYWGQGTQVTVSS | high polyreactivity
10 | QVQLVESGGGLVQAGGSLRLSCAASGSTYYSNAMGWYRPAPGKERELVAGIDTSDGSTNYADSVKGRFTISRDNAKNTVYLQMNSLKPEDTAVYYCAADYTQPGFVSYDYWGQGTQVTVSS | low polyreactivity
11 | QVQLVESGGGLVQAGGSLRLSCAASGTFAGNAMGWYRQAPGKERELVAAITTGGRTYYADSVKGRFTISRDNAKNTVYLQMNSLKPEDTAVYYCAADRIRDLEFDYWGQGTKVTVSS | low polyreactivity
12 | QVQLVESGGGLVQAGGSLRLSCAASGTFARYAMGWYRQAPGKERELVAAISRRGGSTYYADSVKGRFTISRDNAKNTVYLQMNSLKPEDTAVYYCAADNTQVRPKYDYWGQGTQVTVSS | high polyreactivity
13 | QVQLVESGGGLVQAGGSLRLSCAASGTFFIYAMGWYRHAPGKERELVATISTGGSTNYADSVKGRFTISRDNAKNTVYLQMNSLKQEDTAVYYCAAEWLYPHDGGYPRPMDYWGQGTQVTVSS | low polyreactivity
14 | QVQLVESGGGLVQAGGSLRLSCAASGTFFIYAMGWYRQAPGKERELVATISTGGSTNYADSVKGRFTISRDNAKNTVYLQMNSLKPEDTAVYYCAAEWLYPHDGGYPRPMDYWGQGTQVTVSS | low polyreactivity
15 | QVQLVESGGGLVQAGGSLRLSCAASGTFKWYAMGWYRQAPGKERELVAVISSSGGTTSYADSVKGRFTITRDNAKNTVYLQMNSLKPEDTAVYYCNRVWSTSMDYWGQGTQVTVSS | high polyreactivity
16 | QVQLVESGGGLVQAGGSLRLSCAASGTFPDYAMGWYRQAPGKERELVAAITYRGGSTYYADSVKGRFTISRDNAKNTVYLQMNSLKPEDTAVYYCAADVVNAYKSLLVGDMYYWGQGTQVTVSS | high polyreactivity
17 | QVQLVESGGGLVQAGGSLRLSCAASGTFPGNAMGWYRQPPGKERELVATITRGGRTYYADSVKGRVTISRDNANNTVYLQMNSLKPEDTAVYYCNTSVYSGKIRGYDYGGQGTQVTVSS | high polyreactivity
18 | QVQLVESGGGLVQAGGSLRLSCAASGTFQRYAMGWYRQAPGKERELVAGISSAGDTNYADSVKGRFTISRDNAKNTVYLQMKSLKPEDTAVYYCNAAYFAGPADDKFDYWGQGTQVTVSS | low polyreactivity
19 | QVQLVESGGGLVQAGGSLRLSCAASGTFTVNTMGCYRQAPGKERELVAAISTGDTTTYADSVKGRFTISRDNAKNTVYLQMNSLKPEDTAVYYCNVDIGVYAYESDYWGQGTQVTVSS | low polyreactivity
20 | QVQLVESGGGLVQAGGSLRLSCAASGTFTVNTMGWYRQAPGKVRELVAAISTGDTTTYADSVKGRFTISRDNAKNTVYLQMNSLKPEDTAVYYCIVDIGVYAYESDYWGQGTQVTVSS | low polyreactivity
21 | QVQLVESGGGLVQAGGSLRLSCAASGTFTVNTMGWYRQAPGKVSELVAAISTGDTTTYADSVKGRFTISRDNAKNTVYFQLNSLKPEDTAVYYCNVDIGVYAYESDYWGQGTQVTVSS | low polyreactivity

Row | Sequence | polyreactivity (PSR sort gate)
22 | QVQLVESGGGLVQAGGSLRLSCAASGTFYGKTMGWYRQAPGKERELDAVISIDGSTNYADSVKGRFTISRDNAKKTVYLQMNSLKPEDTAVYYCNARNQWRTVGKYDYWGQGTQVTVSS | low polyreactivity
23 | QVQLVESGGGLVQAGGSLRLSCAASGTFYKYAMGWYRQAPGKERELVAAISWRGGRTYADSVKGRFTISRDNANNTVYLQMNSLKPEDTAVYYCAAEYRYDWYTYGYWGQGTQVTVSS | high polyreactivity
24 | QVQLVESGGGLVQAGGSLRLSCAASGTFYRNAMGWYRQAPGKERELVAAISSGSNTDYADSVKGRFTISRDNAKNTVYVQMNSLKPEDTALYYCNADRGDLYDLRGSGYLDGYWGQGTQVTVSS | low polyreactivity
25 | QVQLVESGGGLVQAGGSLRLSCAASGTIFDVNALGWYRQAPGKERELVAAITSGGGTNYADSVKGRFTISRDNAKNTVYLQMNSLKPEDTAVYYCAADHVYYDYDYWGQGTQVTVSS | low polyreactivity
26 | QVQLVESGGGLVQAGGSLRLSCAASGTIFGEYAMGWYRQAPAKERELVADITTGGNTNYADSVKGRFTISRDNAKNTVYLQMNSLTPEATAVYYCAADFFSRDWGQGTQVTVSS | low polyreactivity
27 | QVQLVESGGGLVQAGGSLRLSCAASGTIFNRYAMGWYRQAPGKERELVAAITRGGTTYYADSVKGRFTISRDNATNTVYLQMNSLKPEDTAVYYCAARLRYTTVIYYYWGQGTQVTVSS | high polyreactivity
28 | QVQLVESGGGLVQAGGSLRLSCAASGTIFYDNDMGLYRQAPGKERELVAAISWSASDTYYADSVKGRFTISRDNAKNTVFLQMMSLKPEDTAVYYCNAEVYEWYVVYSALDYWGQVTQVTVSS | low polyreactivity
29 | QVQLVESGGGLVQAGGSLRLSCAASGTLSSYAMGWYRQAPGKERELVAAISLSGGSTYADSVKGRFTISRDNAKNTVYLQMNSLKPEDTAVYYCAKDWDVDITWSFSIYNYWGQGTQVTVSS | low polyreactivity
30 | QVQLVESGGGLVQAGGSLRLSCAASGTTFGYNAMGWYRQAPGKERELVAAITSGGSTNYADSVKGRFTISRDNAKNTVYLQMNSLKPEDTAVYYCDKRGYYHYYWGQGTQVTVSS | high polyreactivity
31 | QVQLVESGGGLVQAGGSLRLSCAASGTTFPKYAMGWYRQAPGKERELVAAITRGGRTYYADSVKGRFTISRDNANNTVYLQMNSLKPEDTAVYYCAVVGYARVGMYDYWGQGSQVTVSS | high polyreactivity
32 | QVQLVESGGGLVQAGGSLRLSCAASGTTFTRYAMGWYRQAPGKERELVAAISRTGGSRTYYADSVKGRFTISRDNAKNTVYLHMNSLKPEDTAVYYCAKGYWRYLGFLYFFPARDYWGQGTQVTVSS | high polyreactivity
33 | QVQLVESGGGLVQAGGSLRLSCAASGTTFYNYAMGWYRQAPGQERELVAAISKTGGSTYYADSVKGRFTISRDNAKNTVYLQMNSLKPEDTAVYYCNAVALYPYTTYHYWGQGTQVTVSS | high polyreactivity
34 | QVQLVESGGGLVQAGGSLRLSCAASGTTYYNAMGWYRQAPGKERELVAAIRFRSGSTYYADSVKGRFTISRDNAKNTVFLQMNSLKPEDTAVYYCNIVPYRGYRRYGYWGQGTHVTVSS | high polyreactivity
35 | QVQLVESGGGLVQAGGSLRLSCAASGVIFSLYAMGWYRQAPGKERELVAVITWSDGRTYYADSVKGRFTISRDNAKNTVYLQMNSLKPEDTAVYYCAAADWITEYDYWGQGTHVTVSS | low polyreactivity
36 | QVQLVESGGGLVQAGGSLRLSCAASGVIFWEYAMGWYRQAPGKERELVAAISTSGGSTYYADSVKGRFTISRDNAKNTVYLQMISLKPEDTAVYYCAVDGWDDTYFRQDMDYWGQGTQVTVSS | low polyreactivity
37 | QVQLVESGGGLVQAGGSLRLSCAASGVIFYDYAMGWYRQAPGKERELVAAISSGGSTNYADSVKGRFTISRDNAKNTVYLQMNSLKPEDTAVYYCAADDRSYATWKRDYDYWGQGTQVTVSS | low polyreactivity
38 | QVQLVESGGGLVQAGGSLRLSCAASGVIFYRYAMGWYRQAPGKERELVAAITRSGGTTYYADSVKGRFTISRDNAKNTVYLQMNSLKPEDTAVYYCAARVTPGRNGGGYWGQGTQVTVSS | high polyreactivity
39 | QVQLVESGGGLVQAGGSLRLSCAASGVILYFHAMGWYRQAPGKERELVAAITSDGGSTYYADSVKGRFTISRDDAKNTVYLQMNSLKPEDTAVYYCAADASTWYTEEYWGQGTQVTVSS | low polyreactivity
40 | QVQLVESGGGLVQAGGSLRLSCAASGVNAMGWYRQAPGKEREIVAAITSIGGSTYYADSVKGRFTISRDNAKNTVSLQMNSLKPEDTAVYYCNTDRGPVKVSPLYESWGQGTQVTVSS | low polyreactivity
41 | QVQLVESGGGLVQAGGSLRLSCAASGVTFIYYTMGWYRQAPGKERDLVATISRRGDSPYYADSVKGRFTISRDNAKNTVYLQMNSLKPEDTAVYYCNAVTRAAYWWTARSTDYDYWGQGTLVTVSS | high polyreactivity

From the nanobody polyreactivity screen of Harvey et al. (2022)
